From US20190367592A1 (AC IMMUNE, published 2019) come the findings set out here.

Assay [1] deals with T1, recombinant human Tau monomer, 2N4R isoform (amino acids 2-441) (human, UniProt P10636-8 2-441).
T1 construct: range 2-441; N-terminal His-tag removed with TEV protease; also called monomeric Tau
In words: SPR high-resolution kinetics, hIgG1.

Assay [2] addresses T1, recombinant human Tau monomer, 2N4R …. In words: SPR screen, hIgG captured, Tau monomer analyte. From the text:
Antibody 125B11-H3 was humanized onto VH3 and Vκ1 consensus frameworks. The heavy chain graft included murine residues at position 78 (Kabat numbering system). The Vκ1 graft included murine residues in framework positions 43 and 87. The light chain of 113F5-F7 was also humanized onto the Vκ1 framework, with additional murine residues at framework positions 43 and 87. Humanized variant heavy chains (125B11) and light chains (125B11 and 113F5-F7) were co-transfected in multiple combinations and purified in 96-well format as described above. Humanized variants were then screened for affinity for human Tau monomer using the Biacore human IgG capture kit, a Series S CM5 chip and a Biacore T200 instrument. Antibodies were diluted to 2 μg/ml and captured for 15 seconds at 10 μl/min. Association and dissociation of 0, 100 and 500 nM human Tau monomer in HBSP was monitored for 180s and 300s respectively at a flow rate of 40 μl/min. A 1:1 binding model was applied to the results (Table 9).

For assay [3] the target is unchanged. In words: SPR single-cycle, human Fab capture kit, Tau monomer analyte; mean ± range, n=2. How it is done: Affinity of the humanized antibody variants was measured at 25° C. using a Biacore T200 instrument, the GE Biacore human FAb capture kit, and a CM5 Series S chip. Antibodies were diluted to 1 μg/ml in HBSP (10 mM HEPES pH7.4, 150 mM NaCl, 0.05% Tween 20) and captured at a flow rate of 10 μl/min for 180 seconds. Kinetic data were collected for human Tau monomer injected at 1.2, 3.7, 11, 33 and 100 nM in HBSP using the Single Cycle Kinetics methodology and a flow rate of 30 μl/min. Each concentration of Tau monomer was injected for a period of 3 minutes and dissociation was monitored for ten minutes. Between cycles, the surface was regenerated with two sequential one-minute injections of 10 mM glycine pH2.1. Data was fit to a 1:1 binding model using BIAEvaluation software. Each antibody was analyzed twice within the experiment; data in Table 22 are shown as mean±range.

For assay [4] the target is unchanged. In words: SPR, hIgG captured, Tau monomer analyte, 1:1 fit. How it is done:
Affinity of selected antibodies was assessed at 25° C. using a Biacore T200 instrument, the GE Biacore human IgG capture kit and a CM5 Series S chip. The hIgG were diluted to 0.25 μg/ml in 10 mM HEPES pH7.4, 150 mM NaCl, 0.05% Tween 20 (running buffer, HBSP) and captured at a flow rate of 10 μl/min for 150 seconds. Kinetic data was collected for Human Tau monomer injected at concentrations of 0, 0.4, 1.2, 3.7, 11, 11, 33 and 100 nM in HBSP, using a flow rate of 30 μl/min, a 300 second association phase and a 600 second dissociation phase. Between cycles the surface was regenerated using two sequential 30 second injections of 3M MgCl at 10 μl/min. Data was fit to a 1:1 binding model (Table 15).
For orientation: In SPR one partner is held on a chip, and binding of the other changes the refractive index at the surface.

For assay [5] the target is unchanged. In words: SPR, captured IgG, Tau monomer analyte, 1:1 model; fit-quality column: -. How it is done: Briefly, IgGs in 1 mL culuture were captured using tip columns that were custom packed with 20 μL MabSelect SuRe resin (Glygen Corp & GE Healthcare). After washing with 1×PBS pH 7.4, IgGs were eluted into 160 μL of 50 mM phosphoric acid pH 3 and neutralized with 12 μL of 20×PBS pH 11. MabSelect SuRe tip columns were stripped in 0.1 M NaOH and regenerated with 1×PBS pH 7.4 for consecutive use of up to 15 times. Purified antibodies in 96-well format were normalized to 0.1 mg/ml using a Hamilton Star liquid handling robot. The “pre-stress” samples were kept at approximately 4° C. and the “post-stress” samples were incubated at 40° C. for two weeks in a PCR machine. Functional stability of the variants was compared by running surface plasmon resonance kinetics experiments with the “pre-stress” and “post-stress” antibody preps. The antibodies were assessed using a human antibody capture CM5 Series S chip generated using the GE Biacore human IgG capture kit and a Biacore T200 instrument. Antibodies diluted to 2 μg/ml were immobilized using a 15 second injection time and 10 μl/min flow rate. Binding to Tau monomer at 0 nM, 26.5 nM and 265 nM, at 25° C., using a flow rate of 40 μl/min, was monitored for a 180 second association phase followed by a 300 second dissociation phase. Samples were run in 10 mM HEPES pH7.4, 150 mM NaCl, 0.05% Tween 20 (HBSP) using a multi-cycle kinetics format. Data was analyzed using BIAevaluation software, fitting a 1:1 binding model. The resulting affinity (KD) values are shown in FIG. 8A-D. A Stability Index was also calculated, using the rationale that affinity-compromised antibodies (due for example to deamidation of key residues) are expected to contribute equally to the IgG capture level (“Ligand Level”) but to contribute less to the measured Tau binding, and that this would be reflected in the experimentally derived value for Rmax. To account for variations in the amount of each antibody captured, Rmax was normalized for the antibody capture level (as measured by “Ligand Level”, Response Units immobilized during antibody capture). Thus Normalized Rmax is calculated as the experimental Rmax (units=RU) divided by the “Ligand Level” (Evaluation output representing the RU captured during the hIgG capture step, units=RU), and Stability Index is calculated here as Normalized Rmax (post-stress) divided by Normalized Rmax (pre-stress).

Assay [6] has the same target. Put plainly: SPR; Normalized Rmax post-stress (2 weeks 40 C) / pre-stress. The essentials:
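IgGs captured on anti-human IgG CM5 chip at 2 μg/ml; Tau monomer analyte at 0, 26.5 and 265 nM, 25° C., 180 s association, 300 s dissociation, in HBSP pH 7.4; KD from 1:1 fit. Stress: 0.1 mg/ml antibody held 2 weeks at 40° C versus ~4° C; Rmax normalized to capture level, post/pre ratio.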

For assay [7] the target is unchanged. Put plainly: SPR screen, hIgG captured, Tau monomer analyte. The source holds these as a separate data set.

As usually defined, the Kd is the constant that tells how readily two partners part at equilibrium. The koff is the first-order rate constant of dissociation. By kon is commonly meant a measure of how fast the partners come together.

T1 sequence (P10636 other isoform, or with tags, fused parts or gaps limits assumed): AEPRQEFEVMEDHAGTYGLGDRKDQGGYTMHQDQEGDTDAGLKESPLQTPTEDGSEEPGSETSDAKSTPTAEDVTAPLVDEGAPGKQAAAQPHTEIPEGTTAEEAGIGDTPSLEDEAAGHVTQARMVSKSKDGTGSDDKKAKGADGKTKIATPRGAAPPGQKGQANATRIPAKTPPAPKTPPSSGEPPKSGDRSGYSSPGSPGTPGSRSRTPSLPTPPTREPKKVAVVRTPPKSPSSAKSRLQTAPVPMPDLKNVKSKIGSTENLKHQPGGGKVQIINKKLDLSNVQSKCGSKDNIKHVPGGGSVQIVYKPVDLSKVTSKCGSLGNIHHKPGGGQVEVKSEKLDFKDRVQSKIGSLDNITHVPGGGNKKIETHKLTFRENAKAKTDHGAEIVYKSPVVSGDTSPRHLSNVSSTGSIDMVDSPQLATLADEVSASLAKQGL

B1: hu125B11.v17 (HC3+LC1) (antibody, IgG1, V domains shown)
VH: EVQLVESGGGLVQPGGSLRLSCAASRFIFSNYWMNWVRQAPGKGLEWVAQIRLKSDNYATHYAESVKGRFTISRDDSKNTLYLQMNSLRAEDTAVYYCTGGTTYWGQGTLVTVSS
VL: DIQMTQSPSSLSASVGDRVTITCKASQNVGTAVAWYQQKPGKSPKLLIYSASIRYTGVPSRFSGSGSGTDFTLTISSLQPEDFATYFCQQFRTYPYTFGQGTKVEIK
notes: also called hu125B11 HC3 + 125B11 LC1
In the case of B1, in assay [1], the Kd came to 10.5 nM, the koff came out at 0.0008 s⁻¹ and the association rate constant (kon) amounted to 80000 M⁻¹ s⁻¹. Moreover, the Kd in assay [2] turned out to be 18 nM.

B2: hu125B11.v26 (HC4+LC2) (antibody, IgG1, V domains shown)
VH: EVQLVESGGGLVQPGGSLRLSCAASRFIFSNYWMNWVRQAPGKGLEWVAQIRLKSDNYATHYAESVKGRFTISRDNSKNTLYLQMNSLRAEDTAVYYCTGGTTYWGQGTLVTVSS
VL: DIQMTQSPSSLSASVGDRVTITCKASQNVGTAVAWYQQKPGKAPKLLIYSASIRYTGVPSRFSGSGSGTDFTLTISSLQPEDFATYFCQQFRTYPYTFGQGTKVEIK
notes: also called hu125B11 HC4 + 125B11 LC2
Regarding B2, in assay [1], the Kd was 9.5 nM, the koff is 0.0007 s⁻¹ and the association rate constant (kon) amounted to 70000 M⁻¹ s⁻¹. The dissociation constant (Kd) in assay [2] is 14 nM.

B3: hu125B11.v28 (HC4+LC4) (antibody, IgG1, V domains shown)
VH: EVQLVESGGGLVQPGGSLRLSCAASRFIFSNYWMNWVRQAPGKGLEWVAQIRLKSDNYATHYAESVKGRFTISRDNSKNTLYLQMNSLRAEDTAVYYCTGGTTYWGQGTLVTVSS
VL: DIQMTQSPSSLSASVGDRVTITCKASQNVGTAVAWYQQKPGKAPKLLIYSASIRYTGVPSRFSGSGSGTDFTLTISSLQPEDFATYYCQQFRTYPYTFGQGTKVEIK
notes: also called hu125B11 HC4 + 125B11 LC4
On to B3, for which, in assay [1], the equilibrium dissociation constant (Kd) is 10.2 nM, the koff worked out at 0.0007 s⁻¹ and the association rate constant (kon) is 70000 M⁻¹ s⁻¹. Further, the Kd in assay [2] stood at 17 nM.

B4: hu37D3-H9.v1 hIgG1 (antibody)
heavy: not shown
light: EDQLTQSPSSLSASVGDRVTITCRSSQSIVHSNGNTYFEWYQQKPGKSPKLLIYKVSNRFSGVPSRFSGSGSGTDFTLTISSLQPEDFATYYCFQGSLVPWTFGQGTKVEIKRTVAAPSVFIFPPSDEQLKSGTASVVCLLNNFYPREAKVQWKVDNALQSGNSQESVTEQDSKDSTYSLSSTLTLSKADYEKHKVYACEVTHQGLSSPVTKSFNRGEC
notes: also called hu37D3.v1 hIgG1
Take B4: in assay [3], the dissociation constant (Kd) was determined as 2.3 nM, the off-rate (koff) was 0.001 s⁻¹ and the kon was found to be 600000 M⁻¹ s⁻¹.

B5: hu37D3-H9.v28.A4 hIgG1 (antibody, V domains shown)
VH: EVQLVESGGGLVQPGGSLRLSCAASGLIFRSYGMSWVRQAPGKGLEWVATINSGGTYTYYPDSVKGRFTISRDNSKNTLYLQMNSLRAEDTAVYYCANSYSGAMDYWGQGTLVTVSS
VL: DDVLTQTPLSLPVTPGQPASISCRSSQSIVHSNGNTYLEWYLQKPGQSPQLLIYKVSNRFSGVPDRFSGSGSGTDFTLKISRVEAEDVGVYYCFQGSLVPWTFGQGTKVEIK
notes: human IgG1, kappa
Turning to B5, in assay [4], the equilibrium dissociation constant (Kd) amounted to 1.5 nM, the dissociation rate constant (koff) was 0.0011 s⁻¹ and the kon amounted to 690000 M⁻¹ s⁻¹.

B6: hu37D3.v28.A30 (antibody, V domains shown)
VH: EVQLVESGGGLVQPGGSLRLSCAASGLIFRSYGMSWVRQAPGKGLEWVATINSGGTYTYYPDSVKGRFTISRDNSKNTLYLQMNSLRAEDTAVYYCANSYSGAMDYWGQGTLVTVSS
VL: DVVMTQTPLSLPVTPGQPASISCRSSQSIVHSNGNTYLEWYLQKPGQSPQLLIYKVSNRFSGVPDRFSGSGSGTDFTLKISRVEAEDVGVYYCFQGSHVPWTFGQGTKVEIK
On to B6, for which the dissociation constant Kd in assay [5] amounted to 34.4 nM. Further, in assay [6], the “Stability Index” value came to 77%.

B7: hu37D3.v39 hIgG4.YTE (antibody, V domains shown)
VH: EVQLVESGGGLVQPGGSLRLSCAASGLIFRSYGMSWVRQAPGKGLEWVATINSGGTYTYYPDSVKGRFTISRDNSKNTLYLQMNSLRAEDTAVYYCANSYSGAMDYWGQGTLVTVSS
VL: EDQLTQSPSSLSASVGDRVTITCRSSQSIVHSNGNTYLEWYQQKPGKSPKLLIYKVSNRFSGVPSRFSGSGSGTDFTLTISSLQPEDFATYYCFQGSLVPWTFGQGTKVEIKR
notes: hu37D3-H9.v1 with light chain F33L; also called hu37D3.v39 hIgG4.S228P.YTE
With B7, in assay [3], the equilibrium dissociation constant (Kd) was found to be 1.9 nM, the koff is 0.001 s⁻¹ and the kon is 600000 M⁻¹ s⁻¹.

B8: hu37D3.v40 hIgG4.YTE (antibody, V domains shown)
VH: EVQLVESGGGLVQPGGSLRLSCAASGLIFRSYGMSWVRQAPGKGLEWVATINSGGTYTYYPDSVKGRFTISRDNSKNTLYLQMNSLRAEDTAVYYCANSYSGAMDYWGQGTLVTVSS
VL: EDQLTQSPSSLSASVGDRVTITCRSSQSIVHSNTNTYFEWYQQKPGKSPKLLIYKVSNRFSGVPSRFSGSGSGTDFTLTISSLQPEDFATYYCFQGSLVPWTFGQGTKVEIKR
notes: hu37D3-H9.v1 with light chain G29T; also called hu37D3.v40 hIgG4.S228P.YTE
Take B8: in assay [3], the equilibrium dissociation constant (Kd) stood at 4.4 nM, the koff turned out to be 0.003 s⁻¹ and the association rate constant (kon) stood at 800000 M⁻¹ s⁻¹.

B9: hu37D3.v41 hIgG4.YTE (antibody, V domains shown)
VH: EVQLVESGGGLVQPGGSLRLSCAASGLIFRSYGMSWVRQAPGKGLEWVATINSGGTYTYYPDSVKGRFTISRDNSKNTLYLQMNSLRAEDTAVYYCANSYSGAMDYWGQGTLVTVSS
VL: EDQLTQSPSSLSASVGDRVTITCRSSQSIVHSNGQTYFEWYQQKPGKSPKLLIYKVSNRFSGVPSRFSGSGSGTDFTLTISSLQPEDFATYYCFQGSLVPWTFGQGTKVEIKR
notes: hu37D3-H9.v1 with light chain N30Q; also called hu37D3.v41 hIgG4.S228P.YTE
Take B9: in assay [3], the Kd stood at 5.4 nM, the dissociation rate constant (koff) was 0.005 s⁻¹ and the on-rate constant (kon) was determined as 900000 M⁻¹ s⁻¹.

B10: hu94B2.v105 (94B2.HC1 + 94B2.LC13) (antibody, IgG1, V domains shown)
VH: EVQLVQSGAEVKKPGASVKVSCKASGYSLTGYTMNWVRQAPGQGLEWIGLISPYNGVTSYNQKFKGRATLTVDKSTSTAYLELSSLRSEDTAVYYCARQGAYWGQGTLVTVSS
VL: DIVMTQTPLSLPVTPGQPASISCKSSQSLLDSDGKTYLNWLLQKPGQSPQRLIYLVSKLDSGVPDRFSGSGSGTDFTLKISRVEAEDVGVYYCWQGTHFPWTFGQGTKVEIK
notes: also called hu94B2 HC1 + LC13
Consider B10, for which, in assay [1], the dissociation constant Kd is 3.7 nM, the koff is 0.0003 s⁻¹ and the kon was determined as 80000 M⁻¹ s⁻¹. Further, the equilibrium dissociation constant (Kd) in assay [7] was 4.1 nM.
